Results on one substance are retold here after patent US20260116980A1.

As usually defined, the EC50 (read off the curve) is the concentration giving half of the maximal effect. Low readings indicate a more potent agent, high ones a less potent agent.

The target in this experiment is B7H3 on H358 tumor cells (UniProt Q5ZPR3). The experiment can be described thus: FACS on H358 cells, 1 h on ice, fluorescence-labelled anti-human Fc.
Chain of B7H3 on H358 tumor cells (Q5ZPR3 29-534): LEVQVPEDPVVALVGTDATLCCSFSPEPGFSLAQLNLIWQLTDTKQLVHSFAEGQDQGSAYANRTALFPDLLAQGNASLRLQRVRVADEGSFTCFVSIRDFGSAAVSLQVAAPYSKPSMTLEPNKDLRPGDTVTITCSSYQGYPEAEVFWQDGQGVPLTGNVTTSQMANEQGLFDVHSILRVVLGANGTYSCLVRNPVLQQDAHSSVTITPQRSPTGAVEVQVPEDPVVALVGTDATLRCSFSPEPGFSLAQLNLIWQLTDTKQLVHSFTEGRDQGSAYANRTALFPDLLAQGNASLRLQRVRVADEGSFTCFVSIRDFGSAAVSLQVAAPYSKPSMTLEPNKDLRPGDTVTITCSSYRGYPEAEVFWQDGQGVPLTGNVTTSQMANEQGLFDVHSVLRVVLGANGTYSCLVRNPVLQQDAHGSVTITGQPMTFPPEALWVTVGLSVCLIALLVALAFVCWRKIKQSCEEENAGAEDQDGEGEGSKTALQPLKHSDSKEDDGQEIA

As to “MABX-9001a (a humanized anti-B7H3 IgG1 monoclonal antibody used for DS-7300a)”, the concentration for a half-maximal effect (EC50 (read off the curve)) worked out at 1 nM.
